Results: US20240058465A1 (SUTRO BIOPHARMA, published 2024)

target: T1, human ROR1 Frizzled domain (hROR1-Fz) (human, UniProt Q01973 165-305); test: SPR Biacore, IgG on anti-Fc, ROR1-Fz analyte
T1 construct: Acro Biosystems, made in HEK293
Method: Anti-Fc polyclonal antibodies were immobilized onto a CMS chip (GE Life Sciences) using amine coupling chemistry (from Amine Coupling Kit, GE Life Sciences). The immobilization steps were carried out at a flow rate of 25 μL/min in 1×HBS-EP+buffer (GE Life Sciences; 10× Stock diluted before use). The sensor surfaces were activated for 7 min with a mixture of NHS (0.05 M) and EDC (0.2 M). The Anti-Fc antibodies were injected over all 4 flow cells at a concentration of 25 ug/ml in 10 mM sodium acetate, pH 4.5, for 7 min. Ethanolamine (1 M, pH 8.5) was injected for 7 min to block any remaining activated groups.
Off-rate and kinetic binding experiments were performed at 25° C. using 1×HBS-EP+buffer. Test and control antibodies were injected over the anti-Fc surface at concentrations of 5-10 μg/mL for 12 seconds at a flow rate of 10 μL/min on flow cells 2, 3 and 4, followed by a buffer wash for 30 seconds at the same flow rate. […] After capturing ligand (antibody) on the anti-Fc surface, the analyte (hROR1, Fz or Kr domains, Acro Biosystems, Delaware) was bound for 180 seconds, followed by a 600 second dissociation phase at a flow rate of 50 μL/min. Between each ligand capture and analyte binding cycle, regeneration was carried out using 2 injections of 10 mM Glycine pH 2.0 for 30 seconds at 30 μL/min, followed by a 30 second buffer wash step.

Row | Binder | Kd [nM] | koff [s⁻¹] | kon [M⁻¹ s⁻¹]
1 | SRP1943-C02 (antibody, IgG1, V domains shown, Parent of SRP2193; His/FLAG-tagged IgG1, cell-free; also called Antibody 70) VH: EVQLVESGGGLAQPGGSLRLSCAAPGFNINDYYIHWVRQAPGKGLEWVGAIDPNSGSTDYADSVKGRFAISADTSKNTAYLQMNSLRAEDTAVYYCARSRWFRVLWSYVFDYWGQGTLVTVSS VL: not shown | 97.6 | 0.05 | 539000

target: T2, human ROR1 (hROR1) (human, UniProt Q01973 30-937); test: flow cytometry, HCT116-hROR1 cells
T2 construct: On HCT116-hROR1 transfectants, Mino cells or Ntera-2 cells, as the assay of each row says; also called receptor tyrosine kinase like orphan receptor 1
Method: A mix of ROR1 positive and negative cells was prepared as follows. Ror1 negative cells were washed 2× in PBS then incubated in PBS containing 1 nM CellTrace™ Oregon Green488® (Life Technologies) at 37° C. for 30 minutes. Cells were then washed 2× with RPMI w/10% fetal calf serum (or FCS), washed 2× with FACS buffer (PBS+0.5% BSA), suspended thoroughly in ice-cold FACS buffer at a final concentration of 4×10^6 cells/ml and kept on ice. ROR1 positive cells were washed 2× in PBS and suspended with ice-cold FACS buffer at 4×10^6 cells/ml. ROR1 positive and negative cells were then mixed to obtain a 1-1 cell suspension and seeded at 50 μl per well on 96 well polypropylene plates. 50 μl of 6-12 point dilutions of anti-ROR1 variants starting from concentrations of ˜100-200 nM antibody was dispensed using BioMekFX (Beckman Coulter) into each well. Cells were then incubated on ice for 1 hr, washed with FACS buffer and incubated for 1 hr on ice with 50 μl FACS buffer containing 2.5 μg/ml Alexa647-conjugated Goat Anti-Human IgG dispensed using BioMekFX (Beckman Coulter). Cells were then washed 2× with FACS buffer and fixed for 10 minutes in 200 μl PBS with 2% PFA prior to fluorescence detection. Samples were acquired using a Beckton Dickinson LSRII FACS. Mean Fluorescence Intensity of ROR1 antibody binding was analyzed using FlowJo® software (Tree Star, Inc.).

Row | Binder | Bmax (MFI) | Kd [nM]
2 | SRP2194-A03 (antibody, IgG1, V domains shown, His/FLAG-tagged IgG1, cell-free) VH: EVQLVESGGGLVQPGGPLRLSCAASGFNITGYYIHWVRQAPGKGLEWVGYITPNSGTTYSADSVKGRFTISADTSKNTAYLQMNSLRAEDTAVYYCARDSRRYVRPLDYWGQGTLVTVSS VL: not shown | 7610 | 5.35
3 | SRP2196-A01 (antibody, V domains shown, His/FLAG-tagged IgG1) VH: EVQLVESGGGLVQPGGSLRLSCAASGFNITGYYIHWVRQAPGKGLEWVGQISPNSGYTYYADSVKGRFTISADTSKNTAYLQMNSLRAEDTAVYYCARDSRRYVRGWDYWGQGTLVTVSS VL: QAVVTQESALTTSPGETVTLTCRSSTGAVTTSNYANWVQEKPDHLFTGLIGGTNKRAPGVPARFSGSLIGDKAALTITGAQTEDEAIYFCALWYSNLWVFGGGTKLTVL | 15800 | 0.3
4 | SRP2194-A11 (antibody, IgG1, V domains shown, His/FLAG-tagged IgG1, cell-free; also called Antibody 135) VH: EVQLVESGGGLVQPGGSLRLSCAASGFNITQYYIHWVRQAPGKGLEWVGYISPNSGYTTDADSVKGRFTISADTSKNTAYLQMNSLRAEDTAVYYCARDSRRYVRPFDYWGQGTLVTVSS VL: not shown | 8660 | 0.1
5 | SRP2194-A08 (antibody, IgG1, V domains shown, His/FLAG-tagged IgG1, cell-free) VH: EVQLVESGGGLVQPGGSLRLSCAASGFNITGYHIHWVRQAPGKGLEWVGYIAPSSGYTYDADSVKGRFTISADTSKNTAYLQMNSLRAEDTAVYYCARDSRRYVRPFDYWGQGTLVTVSS VL: not shown | 8250 | 0.3
6 | SRP2194-A09 (antibody, IgG1, V domains shown, His/FLAG-tagged IgG1, cell-free; also called Antibody 130) VH: EVQLVESGGGLVQPGGSLRLSCAASGFNITGYYIHWVRQAPGKGLEWVGYITPLSGATYRADSVKGRFTISADTSKNTAYLQMNSLRAEDTAVYYCARDSRRYVRPFDYWGQGTLVTVSS VL: not shown | 8240 | 0.13
7 | SRP2194-A10 (antibody, IgG1, V domains shown, His/FLAG-tagged IgG1, cell-free) VH: EVQLVESGGGLVQPGGSLRLSCAASGFNITQYYIHWVRQAPAKGLEWVGYISPNSGSTHIADSVKGRFTISADTSKNTAYLQMNSLRAEDTAVYYCARDSRRYVRPFDYWGQSTLVTVSS VL: not shown | 8250 | 0.16
8 | SRP2193-C05 (antibody, IgG1, V domains shown, His/FLAG-tagged IgG1, cell-free; also called Antibody 91) VH: EVQLVESGGGLVQPGGSLRLSCAASGFNIKHSYIHWVRQAPGKGLEWVGAIDPHNGSTASADSVKGRFTISADTSKNTAYLQMNSLRAEDTAVHYCARSRWFRVLWSYVIDYWGQGTLVTVSS VL: not shown | 15100 | 1.75
9 | SRP2193-E10 (antibody, IgG1, V domains shown, His/FLAG-tagged IgG1, cell-free; also called Antibody 72) VH: EVQLVESGGGLVQPGGSLRLSCAASGFNIYDYYIHWVRQAPGKGLEWVGAIDPVNGSTNNADSVKGRFTISADTSKNTAYLQMNSLRAEDTAVYYCARSRWYRVLWSYVFDYWGQGTLVTVSS VL: not shown | 15900 | 7.14
10 | SRP2193-C08 (antibody, IgG1, V domains shown, His/FLAG-tagged IgG1, cell-free; also called Antibody 99) VH: EVQLVESGSGLVQPGGSLRLSCAASGFNINHYYIHWVRQAPGKGLEWVGAIDPYPGSTYNADSVKGRFTISADTSKNTAYLQMNSLRAEDTAVYYCARSRWFRVLWSYVFDYWGQGTLVTVSS VL: not shown | 15000 | 0.72
11 | SRP2193-B07 (antibody, IgG1, V domains shown, His/FLAG-tagged IgG1, cell-free) VH: EVQLVESGGGLVQPGGSLRLSCAASGFNINNSYIHWVRQAPGKGLEWVGAIDPNSGSTLSADSVKGRFTISADTSKSTAYLQMNSLRAEDTAVYYCARSRWFRVLWSYIFDYWGQGTLVTVSS VL: not shown | 15500 | 0.6
12 | SRP2193-B05 (antibody, IgG1, V domains shown, His/FLAG-tagged IgG1, cell-free; also called Antibody 109) VH: EVQLVESGGGLVQPGGSLRLSCAASGFNINQYYIHWVRQAPGEGLEWVGAIDPIGGSTHLADSVKGRFTISADTSKNTAYLQMNSLRAEDAAVYYCARSRWYRVLWSYVFDYWGQGTLVTVSS VL: not shown | 15400 | 0.47
13 | SRP2193-C03 (antibody, IgG1, V domains shown, His/FLAG-tagged IgG1, cell-free) VH: EVQLVESGGGLVQPGGSLRLSCAASGFNINYSYIHWVRQAPGKGLEWVGAIEPKSGSTASADSVKGRFTISADTSKNTAYLQMNSLRAEDAAVYYCARSRWYRVLWSYVLDYWGQGTLVTVSS VL: not shown | 15700 | 0.14
14 | SRP2193-D03 (antibody, IgG1, V domains shown, His/FLAG-tagged IgG1, cell-free; also called Antibody 93) VH: EVQLVESGGGLVQPGGSLRLSCAASGFNINDHYIHWVRQAPGKGLEWVSAIDPNTGSTVNADSVKGRFTISADTSKNTAYLQMNSLRAEDTAVYYCARSRWSRVLWIYVFDYWGQGTLVTVSS VL: not shown | 15700 | 0.93
15 | SRP2193-E04 (antibody, IgG1, V domains shown, His/FLAG-tagged IgG1, cell-free; also called Antibody 74) VH: EVQLVESGGGLVQPGGSLRLSCAASGFNINDRYIHWVRQAPGKGLEWVGVIDPSLGSTIDADSVKGRFTISADTSRNTAYLQMNSLRAEDTAVYYCARSRWFRVLWSYVFDYWGQGTLVTVSS VL: not shown | 14400 | 15.6
16 | SRP2193-C06 (antibody, IgG1, V domains shown, His/FLAG-tagged IgG1, cell-free) VH: EVQLVESGGGLVQPGGSLRLSCAASGFNIIVHYIHWVRQAPGKGLEWVSAIDPISGSTQWADSVKGRFTISADTSKNTAYLQMNSLRAEDTAVYYCARSRWRRALWIYVFDYWGQGTLVTVSS VL: not shown | 14500 | 4.16
17 | SRP2193-B08 (antibody, IgG1, V domains shown, His/FLAG-tagged IgG1, cell-free; also called Antibody 90) VH: EVQLVESGGGLVQPGGSLRLSCAASGFNIKDYYIHWVRQAPGKGLEWVSAIDPSPGATLDADSVKGRFTISADTSKNTAYLQMNSLRAEDTAVYYCARSRWFRVLWSYALDYWGQGTLVTVSS VL: not shown | 14300 | 1.15
18 | SRP2193-D07 (antibody, IgG1, V domains shown, His/FLAG-tagged IgG1, cell-free) VH: EVQLVESGGGLVQPGGSLRLSCAASGFNIIDYNIHWVRQAPGKGLEWVTAIGPADGSTVNADSLKGRFTISADTSKNTAYLQMNSLRAEDTAVYYCARSRWLRVLWSYVFDYWGQGTLVTVSS VL: not shown | 15400 | 3.11
19 | SRP2193-E09 (antibody, IgG1, V domains shown, His/FLAG-tagged IgG1, cell-free) VH: EVQLVESGGGLVQPGGSLRLPCAASGFNIGAYYIHWVRQAPGKGLEWVGAIDPGSGYTVPADSVKGRFTISADTSKNTAYLQMNSLRAEDTAVYYCARSRWYRVLWSYVFDYWGQGTLVTVSS VL: not shown | 16300 | 0.46
20 | SRP2193-B10 (antibody, IgG1, V domains shown, His/FLAG-tagged IgG1, cell-free; also called Antibody 88) VH: EVQLVESGGGLVQPGGSLRLSCAASGFNIADYYVHWVRQAPGKGLEWVGAIDPNSGYTVKADSVKGRFTISADTSKNTAYLQMNSLRAEDTAVYYCARSRWLRVLWSFVFDYWGQGTLVTVSS VL: not shown | 14700 | 1.08
21 | SRP2193-C10 (antibody, IgG1, V domains shown, His/FLAG-tagged IgG1, cell-free; also called Antibody 123) VH: EVQLVESGGGLVQPGGSLRLSCAASGFNINNAYIHWVRQAPGKGLEWVGAIDPRSGSTISADSMKGRFTISADTSKNTAYLQMNSLRAEDTAVYYCARSRWFRVLWSFGFDYWGQGTLVTVSS VL: not shown | 16600 | 0.32
22 | SRP2193-E02 (antibody, IgG1, V domains shown, His/FLAG-tagged IgG1, cell-free) VH: EVQLVESGGGLVQPGGSLRLSCAASGFNIKDYYIHWVRQAPGKGLEWVGSIDPTSGSTVIADSVKGRFTISADTSKNTAYLQMNSLRAEDTAVYYCARSRWWRVLWSYVFDYWGQGTLVTVSS VL: not shown | 16400 | 8.13
23 | SRP2193-D11 (antibody, IgG1, V domains shown, His/FLAG-tagged IgG1, cell-free; also called Antibody 76) VH: EVQLVESGGGSVQPGGSLRLSCAASGFNINAYYIHWVRQAPGKGLEWVGAIDPNTGSTVDADSVKGRFTISADTSKNTAYLQMNSLRAEDTAVYYCARSRWFRVLWSYVFDYWGQGTLVTVSS VL: not shown | 15200 | 1.25
24 | SRP2193-C01 (antibody, IgG1, V domains shown, His/FLAG-tagged IgG1, cell-free) VH: EVQLVESGGGLVQPGGSLRLSCAASGLNINDHYIHWVRQAPGKGLEWVGTIDPKSGSTHVADSVKGRFTISADTSKNTAYLQMNSLRAEDTAVYYCARSRWFRVLWSYVFDYWGQGTLVTVSS VL: not shown | 15900 | 0.39
